Results from the DeepSol protein solubility set.

Test: soluble on expression in E. coli; label from the status in PepcDB or PDB records

Sequence	soluble on expression in E. coli
MGSDKIHHHHHHMHEPVTRILVVATNAPVPGLVAAVKQGFHQRVDYLELAERFDNRHVDYGIVRPNRMLERLEGITRFDLRLASQVNQIVRSARYQAVISLSERVGIPLALMLPQTVRHLVIFHHGMSARKLQLIRTLHLQHRWDIVAAISEAEAKGMRQALGLPAERVVALHTPVDTAFYQPQPGRQQASVVQSLGLSHRDYPTLIRAMRRLPHIPCHLRVGSSWISGRSGHEREVLPANISLQPFVPPVQLRTCYQQSRIVVVPIKASTQWSAGCTSVQAAQAMGRPVIATRRPGLAEYVDEGRTALLVEPGDADGMADAIATLWENPDRAERMGQAGRQLMEERFTIEQWLDRVVELTHKMMDWPARRSTSTMTGSAV	not soluble
MGSDKIHHHHHHMHIDIDWQNVDTVLLDMDGTLLDLAFDNYFWQKLVPETYGAQQGISPQDAQEYIRQQYHAVQHTLNWYCLDYWSERLGLDICAMTTAQGPRAVLRDDTVPFLNALKASGKRRILLTNAHPHNLAVKLEHTGLASHLDLLLSTHTFGYPKEDQRLWRAVTEETGISAEKTLFIDDSEPILDAAARFGIRYCLGVTNPDSGLAEKHYTRHPSLNDYRRLIPSLM	not soluble
MGSDKIHHHHHHMHIPPFDNQNQAIVGEGDAHVPLTYFNIVKLKEGEAYDYRLKGYETCIVPATGTVDVEVGGEVFADIGNRCVDVWDGDPEGVYVPTNVGAHITARTDAEIFVAGAQFTETLTPFAVRAGELDLVQYGSDETKTHRKIKHILGAGHHDRVGRLLVSELFTVGAGGWSGFPSHKHDTDRLPDETRHDECYNFRFKPDYGSGLQMLQREDNEPGDAYHIMNGSTVLIDKGYHPCCALPGYEMYYFTILGGLSQRSLKQYFQPTHSEQLHTIPGIMDMVAKFK	not soluble
MGSDKIHHHHHHMHLPNSQIYKNFGESMNPFDIMKASQIACCLEVSSFKPGNVHRNRDYRDIKYHHFINAGIAFGNVVYEAAQKDRDVGLYIKKAVIESKKWSPTNANLGIIMLHIPIAMAAGKLENFDENKLKENLKKIAENTTVEDALNVYDAINIAMAYVNKPKKGPDVTSEDAKKELIEKGLTLLDVYKISAEWDNISKEWVDNFKISFEGYNLLKKYYDELNNINLAVTKTFLNLLAKYPDTLIARKRGFETALKVSKMAEDVLNNFKEEKVKEFDKYLSKEGNKLNPGTTADLIASSLMIFILDRIDKRETILW	not soluble
MGSDKIHHHHHHMHQPSDFQVFRTLDRTSNARLLRSSTLSDGLALAHWYRDEAEILGYSDPGHHTLSLYLQGGWQTFRRDRPGLYGGPDRFCVMPAEHHSDWAVTRGLGFMHLYISPERLAGAAVRTLDCEPRSLQLEERTYIQDEPLAALCRTLERQDWNEPGEHLLCTSLAHQAVDHLLLTGCGRRTDVRWQGGLAAHVRRRLADYIESHLEQPLELGSLAELAALSEYHFARMFRVSFGLPPHRYVLERRLARARDLLAYSAQPLQEVSLACGFASPSHFNRRFREAHGATPGQYRAALKAS	not soluble
MGSDKIHHHHHHMHSLTPEYLAALCFDGTQVATLRTLGEYQGKQQLYAAQSPEALKGLRQIAVVESTESSNRLEGVVVAPSRLKSLVIRNATPKSRSEQEIAGYRDALALIHESAAHMPFSEGVVLQLHTLLYRYMPQAGGRWKATNNDIIERHPDGTSRLRFQPVASHLTPMAMADLTGRYATALDQHLADPLVLVPLAMLDLLCIHPFPDGNGRMSRLLTLLLLYHFDYAVGRYISLERIFEETKESYYETLEASSQGWYQGQHDVKPWLDYFWGALLRAYREFEERVGTIERGRGSKGDRVRAEVLGRSLPFSISEIEEACPGVSRDMVRLVLRAMKSEGLIESTGKGRGAKWIKQG	not soluble
MGSDKIHHHHHHMHTEVQEYGLSLRWVRFIFAAKEILINMVYKVFLSLCIGLALSASAALHAQKAVSGHAPIQVETPARSSGQKHVLQLVTPKLETVRIGIIGLGMRGPGAVERFSKIPGTQIVALCDVLPERVKKTQEILVKAGLPEAAAYSGSEDAWKKLCEREDIDLVYIVTDWKTHAEMGVYAMEHGKHAAIEVPAAMTLEEIWKLIDTSERTRKHCIQLENCVYDFFELTTLNMAHQGVFGEILHAEGAYIHNLEDFWPYYWNNWRLDYNRKHRGDVYATHGMGPACQLLDIHRGDRMKTIVAMDTKAVNGPAYIKNKTGEVVADFQNGDQTTSLIRTEKGKTLLIQHNVMTPRPYSRKYQAVGTDGFADKYPLEMYCLRPAQVDSDIAPDHEKLNAHGPVSEEVKKALMEKYKHPIHRELEETAKKVGGHGGMDYIMDYRLIYCLRNGLPLDMDVYDLAEWCCLAELSRISIENGSAPVAIPDFTRGNWDKVKGYRHAMAE	not soluble
MGSDKIHHHHHHMIEQIGSVEEADAGKVLESLVLSFSPSLLPLRQRWRNNGLSADFLGDYVTTFFPGAGDDTTTADRQKHAKAAVSYIANELLENAMKYSAAESTRPITITLSLEAERITFIETNPVSRARAATFHSYATELIASDPMEMYLRILEEERSDDDGSGLGLITMINDYNASLSWRFEDPGEDTVMVSTIVQIPV	not soluble
MGSDKIHHHHHHMIHIKRAPDTETAYLVMKEGFSDYMIPLGLSPEVFQERILERDGNQLEHSFIAYHGERPVAIWLNGLKTIKKKTVMRCGGLAVDPQYRRLGIAKALYDAQLSYAKSLNVDCLMLEVIQGNEPAITLYKSFGYQTVSELGYFHKEESGQVEPLVEIDQVAFERRYIQQDEYIWQQDPGVMKLAKARYYELDGAFIAAVNESIFAILTDEEEVARVATEATRRLAGELYHLQSTNQQVWEELLKAGWQQRDLKQFIMQKPISV	not soluble
MGSDKIHHHHHHMIIAVSGKGGVGKTAFTTLLIKALSKKTNSILVVDADPDSNLPETLGVEVEKTVGDIREELKKLVERDEIPAGMTKLDYLRSKIFEILVETKYYDLLVMGRPEGSGCYCSVNNWLRQIIDNLAKDYEFVVIDTEAGLEHLSRRTTQNVDVMIVITDASKRGLGTAKRIKKLANELEVKFKDIYVVANKVKPEYEELIDNYAKELGLNLIGKLPYNKEIAEYDLKGIPLWNLPENNEVYKKVEEIAEKIINKKF	not soluble
MGSDKIHHHHHHMIIDAHTHVWPEKIAAKALAGRVPGMEAKFDGTVAGLKRSMDAAGIDHCVAFGIADHARHVERANEFISSQRSDWLTPFGTIHLDLSVEENMEILQRHGIKGVKLHPLFQRFRLDDRRLWALFDAFGSDIAVITHVGFGGQGSANENSTPQMIVDIARNFPKLRFMACHFGGFRRLDEAEKYVVGLPIVLETSWPPGLAEIPTERLRAIVHRHGPDRIIFGSDWPMVDPADEIEAIRRLELHPDDEAAILGGNLARILGMES	not soluble
MGSDKIHHHHHHMIKLIVSDIDGTLVDSQGQLLPATITGVQAAVARGAQMVLASARSPKGMFGIAQQLGINSTMIAYNGALTATTDVNDRLTVFEEQAVDPKLAQAVQTVVAHDWPAASISIYSNNNWLVATNGPWEQQEATGIGYAPHVTDLGTWLQRMPTPVHKMMIMADPDIIQAIEQRLSRNEFSGLAVYRSKETYLEIVAAGVTKAAALMKLLQDDQVTPAETLAFGDNFNDVAMLQTAGIGVAMANAPQPVKEAANIVTTDNNHNGIQLTLAQYFADVTR	not soluble
MGSDKIHHHHHHMIKLKKVLVLGGTRFFGKHLVEALLQDGHDVTIATRGITEDSFGSRVKRLIVDREDEKQLAERLADKSYDIVYDNLCYSSNAAKIICEVLRGKTTKYVMTSSMAVYEPALSLSEEDFDPYEYAIAYGDRNDFNYGEGKRLAEAVVFQQATFPVVAVRFPVVIGENDYTKRLQFYVEHIVREEPVAVNHLDGKLSFIHEEEAGEFLAWCGMKDIEGPINACSNGVVSTREIIHFIEENTGIKSLIQEVGDHVAPYNEVTNCTLHNGKANELGFPFRGLKIEIEKVLCYYIHAMK	not soluble
MGSDKIHHHHHHMILDVDYVISAANITMQFGAKPLFENISVKFGNGNRYGLIGANGCGKSTFMRILSGEQEPSAGNVSLEPNIRIGKLRQDQFAYEDYSVVDAVIMGHEELWAVKEERDRIYSSGEMSEEDGMRVADLETEFAEMDGYTAESRAGELLLGLGIPVEQHFGLMSALAPGVKIRVLLAQVLFSEPDIMLLDEPTNNLDINTIRWLEGVLAEKQSTMIIISHDRHFLNTVCTHMADIDYGELRVYPGNYDEYMFAATQAREQLMSDNAKKKEKIAELQSFVSRFSANASKAKQATSRQKQMEKIQLDEVKASSRVNPYIRFTQEKKLYRLALETENVRKSFEDEAVLKGLSTSIEVGEKVAIIGANGIGKTTLLKCLMGEYTPDSGSIKWSENAAIGYYAQDHAHWFKQDMTVYEWMYQWKKPGDDEQAIRGVLGRMLFSSDDIQKPVSILSGGEKGRMIFGKLILQRPNILVMDEPTNHLDMESIESLNLALEQFEGTLLFVSHDREFVSTLATRIIEITDKGLRDFAGSYDEYLAQLAAA	not soluble
MGSDKIHHHHHHMINFSQIQVFITIVESGGFIAAGEKMHRSQPAITNAIKKLESSLGFELFDRKVYRPQLTAKGKAFYQKAREVVAQFMQLENSAETLRSGVETQFSIDLDIALPLPGYAPLIQSFIRQYPETCFSLSNNTFVRCLERLERRECHLCIAASHIRSPQIEYLRMPSIRMIPVASRDYYDQHKERINNPKLGIYCMQIMIAGTQQELYQLKIEPLSHSMPKWLVGDMYIRKQLILSGMGIGRLPDHLVEKELAEGSLVQLNTRDYVAVTMDIYAMRLNNQEHGMVSNYAWQSLKSYAEDTVSPDLK	not soluble
MGSDKIHHHHHHMINIFKPRTLTFYLVKSMDVLELLSELVSFNTVNDPNKGIKPSKECPRFIKDQLDSWDIESEIIERSGYYAVYGEIGDGTPRLLFMAHFDVVPVNLEEWETDPFELTIKENKAYGRGSADDKGNVAAVMLALKELSKEEKLNGRVIFAFTGDEEIGGAMAMHIAEKLSKEGKVPKYMINADGIGMKPIIRRRKGFGVEIKVYPRKVKVKGRVREIEFEPKTPVVETRHAAYFLPGVDTHPMVALSHFLRNSNAVAISLDGAFIKGNVIPGKVKLKYVEPGEGEEVEGDLSLTALLKAIVPIVRAPIKAEKYSDYGVSITPNVYSFDGSHVLKVDVRAMSYSKDDIEKTLREVLNFNLPEAELIIKENEKAGYLFTSPDDELVRVTLRILKELGEDVEPIEGPGASDSRYFTPLGVKAIDIGPRGGNIHGPNEYVEVDSLRKMPEIYRRIALSLLL	not soluble
MGSDKIHHHHHHMINPAHFDLQSLRIFLQVAQSGSLTKAAEKFHITLSALSKRIAELERTVDCALFIRMPRGLTLTPAGKELVNLAGNVLSNVERMASEMNDYAVGVRGHVHMWANTSAIIQFLPQDLASFLPTRPLIRINLEEKLSKTVVTALAMGEADIGIFVDNVGSQGVEKIPYRKDKLVVLVPPQHPLSALSDVSFNDTLGYDYVGLNSGSSLLKQLKDASDELGRVLRLRVQVSSFDGICRMIEAGLGISVLPEGAIRPEVLGTGLRAINLTDEWASRQLWLGVKSGAILQPEVTNLLTHLRQCGA	not soluble
MGSDKIHHHHHHMINSYISQQIERNFPYKPTDDQFLALHTLTEFLLSEEPDSLLLMKGYAGTGKTSLVGALVKTLNELKQKTFLLAPTGRAAKVFSGYAGQKAYTIHKKIYRQRAFSNEPTGFMPADNLHKDTLFIVDEASMIANEGLDSFVFGSGRLLDDLIQYVYSGENCRLILMGDVAQLPPVMQTESPALNPEILRGYNLQVWEIALTQVVRQSEDSGILFNATRLRDALRNHTVEIFPKLQLKGFSDFTKVNGDELIEEISSAYSRDGMEETMIISRSNKRATIYNNGIRNRILYREEELSSGDRLMVAKNNYYWTANCKEMDFIANGEIIQVMRVRRVTEMYGFRFADITARFQDYDLEIDLKILLDTLQTDSPALPKELNDKLFYTILEDYEDIPTKAGKMKKMKVDPHYNVVQVKYAYAVTCHKAQGGQWMNVFLDIGYITEEMLGEDFYRWLYTAFTRATHHLYLVNLPDEFVE	not soluble
